Legend:
Test in all cases: cell-based or functional assay
KDR [1] = target: T1, KDR (human, UniProt P35968 20-1356)
KDR [2] = target: T1, KDR; remark: listed apart in the source
KDR [3] = target: T1, KDR; remark: listed apart in the source
KDR [4] = target: T1, KDR; remark: listed apart in the source
KDR [5] = target: T1, KDR; remark: listed apart in the source

T1 sequence (P35968 20-1356): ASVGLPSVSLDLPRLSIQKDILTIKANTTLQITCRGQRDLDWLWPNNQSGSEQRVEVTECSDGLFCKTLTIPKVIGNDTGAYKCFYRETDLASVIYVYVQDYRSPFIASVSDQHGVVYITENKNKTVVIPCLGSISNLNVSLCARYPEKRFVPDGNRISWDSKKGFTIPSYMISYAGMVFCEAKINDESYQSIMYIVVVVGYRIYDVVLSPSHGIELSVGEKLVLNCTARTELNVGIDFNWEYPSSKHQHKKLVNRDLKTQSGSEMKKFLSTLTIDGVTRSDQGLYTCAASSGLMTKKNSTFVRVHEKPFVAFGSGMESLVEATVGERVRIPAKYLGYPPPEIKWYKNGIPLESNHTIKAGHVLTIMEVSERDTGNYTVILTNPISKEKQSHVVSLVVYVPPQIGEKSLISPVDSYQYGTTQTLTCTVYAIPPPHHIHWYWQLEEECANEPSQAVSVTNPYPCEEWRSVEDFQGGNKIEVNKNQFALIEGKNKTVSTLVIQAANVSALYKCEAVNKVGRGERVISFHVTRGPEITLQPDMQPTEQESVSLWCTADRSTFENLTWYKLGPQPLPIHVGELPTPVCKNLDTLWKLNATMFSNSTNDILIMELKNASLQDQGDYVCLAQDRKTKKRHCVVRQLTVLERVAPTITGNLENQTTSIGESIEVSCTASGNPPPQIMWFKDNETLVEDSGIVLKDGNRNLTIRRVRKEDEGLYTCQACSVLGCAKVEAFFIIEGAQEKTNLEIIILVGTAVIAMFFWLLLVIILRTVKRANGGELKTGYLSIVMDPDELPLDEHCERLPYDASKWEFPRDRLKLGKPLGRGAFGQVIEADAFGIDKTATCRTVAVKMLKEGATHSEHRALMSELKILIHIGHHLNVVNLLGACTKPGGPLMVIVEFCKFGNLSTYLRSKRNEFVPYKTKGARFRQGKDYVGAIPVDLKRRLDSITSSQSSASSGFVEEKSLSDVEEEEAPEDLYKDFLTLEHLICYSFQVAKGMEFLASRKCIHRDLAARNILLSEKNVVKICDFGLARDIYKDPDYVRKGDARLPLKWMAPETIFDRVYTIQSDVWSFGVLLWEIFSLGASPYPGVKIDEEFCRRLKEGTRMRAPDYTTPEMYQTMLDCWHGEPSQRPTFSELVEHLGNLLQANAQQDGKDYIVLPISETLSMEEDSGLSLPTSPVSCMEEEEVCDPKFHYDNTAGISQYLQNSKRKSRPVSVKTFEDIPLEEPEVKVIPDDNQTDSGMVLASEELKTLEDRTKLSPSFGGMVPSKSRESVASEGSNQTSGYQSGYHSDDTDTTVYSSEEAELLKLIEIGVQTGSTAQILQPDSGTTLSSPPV

Binder | Activity at 133 nM (% Inhibition), 1-hour Pre-incubation at 4° C., Average (KDR [1]) | Activity at 133 nM (% Inhibition), 1-hour Pre-incubation at 4° C., N = 1 (KDR [1]) | Activity at 133 nM (% Inhibition), 1-hour Pre-incubation at 4° C., N = 2 (KDR [1]) | Activity at 133 nM (% Inhibition), 24-hour Pre-incubation at 37° C., Average (KDR [2]) | Activity at 133 nM (% Inhibition), 24-hour Pre-incubation at 37° C., N = 1 (KDR [2]) | Activity at 133 nM (% Inhibition), 24-hour Pre-incubation at 37° C., N = 2 (KDR [2]) | % of Max VEGF KDR pTyr Activity (at 133 nM antibody concentration), Average (KDR [3]) | % of Max VEGF KDR pTyr Activity (at 133 nM antibody concentration), N = 1 (KDR [3]) | % of Max VEGF KDR pTyr Activity (at 133 nM antibody concentration), N = 2 (KDR [3]) | Activity at 133 nM Antibody Concentration (% Survival Inhibition), Average (KDR [4]) | Activity at 133 nM Antibody Concentration (% Survival Inhibition), N = 1 (KDR [4]) | Activity at 133 nM Antibody Concentration (% Survival Inhibition), N = 2 (KDR [4]) | % Inhibition of VEGF165-mediated 6-keto Prostaglandin F1α release at 133 nM Antibody Concentration, Average (KDR [5]) | % Inhibition of VEGF165-mediated 6-keto Prostaglandin F1α release at 133 nM Antibody Concentration, N = 1 (KDR [5]) | % Inhibition of VEGF165-mediated 6-keto Prostaglandin F1α release at 133 nM Antibody Concentration, N = 2 (KDR [5])
22B8 (antibody, V domains shown) VH: QLQLQESGPGLVKPSETLSLTCTVSGGSISSRYYYWGWVRQPPGKGLEWIGTIYYSGHTYYNPSLKTRVTISVDTSKNQFSLKLISVTAADTAVYYCATQQLVLYYFDFWGQGTLVTVSS VL: EIVLTQSPGTLSLSPGERAALSCRASQSISSSYLAWYQQRPGQAPRLLIYGASSRATGIPDRFNGSGSGTDFTLTISRLEPEDFAVYYCQQFGSSITFGQGTRLEIK | 76% | 75% | 76% | 99% | 82% | 115% | 7% | 9% | 5% | 88% | 88% | 87% | 72% | 67% | 76%
30F6 (antibody, V domains shown) VH: QVQLVESGGGVVQPGRSLRLSCAASGFTFSTYGMHWVRQAPGKGLEWVAVIWYDGSNKYYADSVKGRFTISRDNSKNTLYLQMNSLRAEDTAVYYCACSYWNDDYYYGMDVWGQGTTVTVSS VL: DIQMTQSPSSLSASVGDRVIITCRASQNISSYLIWYQQKPGKAPNLLIHTTSSLQRGVPSRFSGSGSGTDFTLTISSLQPEDFATYYCQQSYSAPLTFGGGTKVEIK | 84% | 84% | 85% | 55% | 60% | 51% | 13% | 14% | 13% | 82% | 91% | 74% | 79% | 68% | 89%
29A3 (antibody, V domains shown) VH: QVQLQESGPGLVKPSETLSLTCTVSGGSISSYFWSWIRQPAGKGLEWIGRIYFSGRTNYNPSLKSRVTMSVETSKNQFSLKLNSVTAADTAVYYCARDGGWNYDVAFDYWGQGTLVTVSS VL: QAVLTQPSSLSASPGASASLTCTLRSGINVGTYRIYWYQQKPGSPPQYLLRYKSDSDQLQGSGVPSRFSGSKDASANAGILLISGLQSEDEADYYCMVWHSNTWVFGGGTKLTVL | 23% | 25% | 20% | 11% | 7% | 15% | 16% | 15% | 17% | -111% | -65% | -156% | 13% | 11% | 16%
32B2 (antibody, V domains shown) VH: EVQLLESGGGLVQPGGSLRLSCAASGFTFSNYAMSWVRQAPGKGLDWVSAISGRGGSTYYADSVKGRFTISRDNSKNTLFLLMNSLRAEDTAVYYCAKASGDDWGQGTLVTVSS VL: not shown | 29% | 25% | 33% | 49% | 38% | 61% | 11% | 12% | 10% | -21% | -13% | -29% | 6% | 3% | 9%
30H10 (antibody, V domains shown) VH: EVQLLESGGGLVQPGGSLRLSCAASGFTFSNYAMSWVRQAPGKGLEWVSAISGSGGITYYADSVKGRFTISRDNSKNTLFLQMNSLRAEDTAVYYCAKASGDNWGQGTLVSVSS VL: not shown | 26% | 31% | 21% | 62% | 48% | 77% | 12% | 12% | 13% | -115% | -84% | -147% | 10% | 10% | 
29H3 (antibody, V domains shown) VH: QVQLVQSGAEVKKPGASVKVSCKASGYTFTSYDINWVRQATGQGLEWMGWMNPNSGKTGYAQKFQGRVTMTRNTSINTAYMELSSLRSEDTAVYYCARGGYSNLGWFDPWGQGTLVTVSS VL: DIQMTQSPSSVSASVGDRVTITCRASQGISSWLVWYHQKPGKAPKLLIYGASSLQSGVPSRFSGSGSGTDFTLTISSLQPEDFATYYCQQANNFPFTFGPGTKVDIK | 50% | 45% | 55% | 19% | 1% | 36% | 16% | 20% | 11% | -70% | -5% | -136% | 18% | 14% | 22%
21H6 (antibody, V domains shown) VH: QVQLVESGGGLVKPGGSLRLSCAASGFTFSDYYMSWIRQAPGKGLEWVSYISNSGITIYYADSVKGRFTISRDNAKNSLYLQMNSLRAGDTAVYYCAREEWYSSRWYRNFDYWGQGTLVTVSS VL: DIQMTQFSSSLSASVGDRVTITCRASQSISRYLNWYQQKPGKAPKLLIYAASSLQSGVPSRFNGSGSGTDFTLTISSLQPEDFATYYCQQSYSAPLTFGGGTKVEIK | 74% | 74% | 75% | 27% | 35% | 19% | 11% | 10% | 12% | 91% | 105% | 77% | 100% | 104% | 96%
